For assay [1], the target named is T1, CD73-ND-P139A (human, UniProt P21589 27-317).
T1 construct: Alanine mutant of CD73-ND
T1 sequence: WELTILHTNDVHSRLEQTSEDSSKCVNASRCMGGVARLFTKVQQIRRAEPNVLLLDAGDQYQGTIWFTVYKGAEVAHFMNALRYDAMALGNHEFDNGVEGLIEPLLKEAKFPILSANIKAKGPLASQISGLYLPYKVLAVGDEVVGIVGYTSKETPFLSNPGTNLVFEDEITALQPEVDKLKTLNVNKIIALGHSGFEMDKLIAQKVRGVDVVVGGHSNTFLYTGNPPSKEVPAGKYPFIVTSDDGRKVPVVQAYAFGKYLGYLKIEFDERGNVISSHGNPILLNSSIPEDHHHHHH
The experiment in a line: ELISA; decline multiple of EC50 against CD73-ND. The protocol:
(§1) The ELISA plates were coated with SA protein diluted to 1.5 μg/mL in coating buffer (50 mM carbonate coating buffer, pH 9.6) and incubated overnight at 4° C. The supernatant was discarded, and the plates were washed three times with PBST. Then, 5% skimmed milk powder prepared with PBS was added for blocking and the plates were incubated for 2 h at 37° C. After washing the plates once with PBST, CD73-biotin protein (prepared by biotinylating CD73-His protein according to the EZ-Link NHS-Biotin Reagent instructions) was diluted to 0.5 μg/mL and added at 100 μL/well for incubation at room temperature for 1 h. The plates were washed three times with PBST, and the prepared murine-derived monoclonal antibodies against human CD73 were serially diluted with 1% BSA buffer prepared with PBST and added to the ELISA plates at 100 μl/well. The plates were incubated at 37° C. for 1 h. After washing the plates three times with PBST, HRP-labeled goat anti-mouse IgG secondary antibody was added and the plates were incubated for 30 min at 37° C. After washing the plates three times with PBST, the residual droplets were patted dry on absorbent paper as much as possible. Then, 100 μl of TMB color developing solution was added to each well, and the plates were incubated in the dark at room temperature for 5 min for color development. Subsequently, 50 μl of 2M H₂SO₄ stop solution was added to each well to terminate the substrate reaction. The OD values were read at 450 nm using a multimode microplate reader to analyze the binding ability of the tested antibodies to the target antigen human CD73-His.
(§2) Referring to the experimental method in Example 3, the affinity of 48A11-HuV33 for various mutant proteins of CD73-ND was determined. The SA protein was diluted to 1 μg/mL for coating the ELISA plates, and the biotinylated CD73 protein (CD73-biotin) was used at a concentration of 0.1 μg/mL.
On the technique in general: An ELISA detects its analyte on a solid surface through an enzyme-linked reagent.

Assay [2] has as its target T2, CD73-ND-his (human, UniProt P21589 27-317).
T2 construct: Biotinylated and captured on streptavidin in the ELISA
T2 sequence: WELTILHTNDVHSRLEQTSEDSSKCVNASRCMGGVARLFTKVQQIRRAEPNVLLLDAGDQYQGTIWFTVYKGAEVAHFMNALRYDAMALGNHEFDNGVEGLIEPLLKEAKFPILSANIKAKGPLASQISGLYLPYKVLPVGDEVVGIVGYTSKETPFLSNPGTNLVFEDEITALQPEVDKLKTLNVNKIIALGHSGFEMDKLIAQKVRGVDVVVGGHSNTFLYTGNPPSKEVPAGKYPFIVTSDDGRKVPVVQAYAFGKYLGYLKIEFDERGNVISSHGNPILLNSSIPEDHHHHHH
The experiment in a line: ELISA; decline multiple of EC50 against CD73-ND. As for the experimental part:
as §1, §2

The target in assay [3] is T3, CD73-ND-L184A (human, UniProt P21589 27-317).
T3 construct: Alanine mutant of CD73-ND
T3 sequence: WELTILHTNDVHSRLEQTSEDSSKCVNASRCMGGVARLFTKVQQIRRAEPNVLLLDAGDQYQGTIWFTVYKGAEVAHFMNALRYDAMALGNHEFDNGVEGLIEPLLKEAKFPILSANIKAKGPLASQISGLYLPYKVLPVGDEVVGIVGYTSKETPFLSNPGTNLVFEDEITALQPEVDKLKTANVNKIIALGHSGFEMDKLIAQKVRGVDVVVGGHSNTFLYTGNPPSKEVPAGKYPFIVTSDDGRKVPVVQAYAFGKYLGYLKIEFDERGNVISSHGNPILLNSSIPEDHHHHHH
As to the kind of experiment: ELISA; decline multiple of EC50 against CD73-ND. As for the experimental part:
as §1, §2

The target of assay [4] is T4, CD73-ND-V140A (human, UniProt P21589 27-317).
T4 construct: Alanine mutant of CD73-ND
T4 sequence: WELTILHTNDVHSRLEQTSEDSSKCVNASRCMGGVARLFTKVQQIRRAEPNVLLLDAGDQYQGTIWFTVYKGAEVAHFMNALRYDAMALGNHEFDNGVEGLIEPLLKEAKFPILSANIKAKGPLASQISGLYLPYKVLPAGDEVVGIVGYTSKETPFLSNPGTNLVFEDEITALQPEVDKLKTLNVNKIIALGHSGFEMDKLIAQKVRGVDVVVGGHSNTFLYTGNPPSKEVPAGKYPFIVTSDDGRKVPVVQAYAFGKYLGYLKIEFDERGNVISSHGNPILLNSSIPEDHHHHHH
The experiment in a line: ELISA; decline multiple of EC50 against CD73-ND. The protocol:
as §1, §2

The target in assay [5] is T5, CD73-ND-D142A (human, UniProt P21589 27-317).
T5 construct: Alanine mutant of CD73-ND
T5 sequence: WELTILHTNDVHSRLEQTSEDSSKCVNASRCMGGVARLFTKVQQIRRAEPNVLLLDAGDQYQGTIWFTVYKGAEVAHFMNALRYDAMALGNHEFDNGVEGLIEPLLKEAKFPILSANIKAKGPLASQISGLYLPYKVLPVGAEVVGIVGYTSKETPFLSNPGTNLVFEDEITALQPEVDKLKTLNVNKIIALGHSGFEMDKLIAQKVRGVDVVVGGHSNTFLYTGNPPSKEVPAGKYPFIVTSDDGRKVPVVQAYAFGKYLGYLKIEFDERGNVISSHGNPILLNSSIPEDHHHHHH
As to the kind of experiment: ELISA; decline multiple of EC50 against CD73-ND. The protocol:
as §1, §2

The target of assay [6] is T1, CD73-ND-P139A. As to the kind of experiment: ELISA, biotinylated antigen on streptavidin plate. The protocol: as §1, §2
The target in assay [7] is T2, CD73-ND-his. The experiment in a line: ELISA, biotinylated antigen on streptavidin plate. The protocol:
as §1, §2

The target in assay [8] is T3, CD73-ND-L184A. As to the kind of experiment: ELISA, biotinylated antigen on streptavidin plate. As for the experimental part:
as §1, §2

Assay [9] deals with T5, CD73-ND-D142A. The experiment in a line: ELISA, biotinylated antigen on streptavidin plate. As for the experimental part: as §1, §2

B1: 48A11-HuV33 (antibody, human IgG4, V domains shown)
VH: QVQLVQSGAEVKKPGASVKVSCKASGYTFTSYWMHWVRQAPGQGLEWIGEINPSIGRTNYNEKFKSRVTLTRDTSTSTAYMELSSLRSEDTAVYYCARRVYGTMDYWGQGTLVTVSS
VL: DIQMTQSPSSLSASVGDRVTITCKASQDINSYLSWFQQKPGKSPKLLIYRANIWVDGVPSRFSGSGSGQDYTFTISSLQPEDIATYYCLQYDELYTFGQGTKVEIK
notes: Humanized
The term EC50 denotes the midpoint of the concentration-response curve. Read a low EC50 as a more potent agent. Consider B1, for which the “Ratio(EC50)” value in assay [1] came out at 24.4 fold; in assay [2], 1 fold; in assay [3], 3.4 fold; in [4] it was 0.6 fold; in [5] it was 1.9 fold. Moreover, the EC50 came to 4.34 nM in assay [6], 0.178 nM in [7], 0.612 nM in assay [8] and 0.344 nM in assay [9].

Source of the values: patent US20250066499A1 (SUNSHINE GUOJIAN PHARMACEUTICAL SHANGHAI, published 2025).
